The record followed here is US20210388087A1.

First the molecules themselves.
B1: dBBDu183H V95K / dBBDu072L (antibody, name in Kabat numbering, V domains shown)
VH: QVQLVESGGGLVQPGRSLRLSCAASGFTFSNAWMHWVRQAPGKGLEWVAQIKDKGNAYAAYYAPSVKGRFTISRDDSKNSIYLQMNSLKTEDTAVYYCHYKHYASASTVLPAFGVDAWGQGTTVTVSS
VL: DIVMTQSPLSLPVTPGEPASISCQASQELVHMNRNTYLHWYQQKPGQAPRLLIYKVSNRFPGVPDRFSGSGSGTDFTLKISRVEAEDVGVYYCAQGTSVPFTFGQGTKLEIK
B2: dBBDu183H H93R / dBBDu072L (antibody, name in Kabat numbering, V domains shown)
VH: QVQLVESGGGLVQPGRSLRLSCAASGFTFSNAWMHWVRQAPGKGLEWVAQIKDKGNAYAAYYAPSVKGRFTISRDDSKNSIYLQMNSLKTEDTAVYYCRYVHYASASTVLPAFGVDAWGQGTTVTVSS
VL: DIVMTQSPLSLPVTPGEPASISCQASQELVHMNRNTYLHWYQQKPGQAPRLLIYKVSNRFPGVPDRFSGSGSGTDFTLKISRVEAEDVGVYYCAQGTSVPFTFGQGTKLEIK
B3: dBBDu183H T100bK / dBBDu072L (antibody, name in Kabat numbering, V domains shown)
VH: QVQLVESGGGLVQPGRSLRLSCAASGFTFSNAWMHWVRQAPGKGLEWVAQIKDKGNAYAAYYAPSVKGRFTISRDDSKNSIYLQMNSLKTEDTAVYYCHYVHYASASKVLPAFGVDAWGQGTTVTVSS
VL: DIVMTQSPLSLPVTPGEPASISCQASQELVHMNRNTYLHWYQQKPGQAPRLLIYKVSNRFPGVPDRFSGSGSGTDFTLKISRVEAEDVGVYYCAQGTSVPFTFGQGTKLEIK
B4: dBBDu183H Y97K / dBBDu072L (antibody, name in Kabat numbering, V domains shown)
VH: QVQLVESGGGLVQPGRSLRLSCAASGFTFSNAWMHWVRQAPGKGLEWVAQIKDKGNAYAAYYAPSVKGRFTISRDDSKNSIYLQMNSLKTEDTAVYYCHYVHKASASTVLPAFGVDAWGQGTTVTVSS
VL: DIVMTQSPLSLPVTPGEPASISCQASQELVHMNRNTYLHWYQQKPGQAPRLLIYKVSNRFPGVPDRFSGSGSGTDFTLKISRVEAEDVGVYYCAQGTSVPFTFGQGTKLEIK
B5: dBBDu183H G100hK / dBBDu072L (antibody, name in Kabat numbering, V domains shown)
VH: QVQLVESGGGLVQPGRSLRLSCAASGFTFSNAWMHWVRQAPGKGLEWVAQIKDKGNAYAAYYAPSVKGRFTISRDDSKNSIYLQMNSLKTEDTAVYYCHYVHYASASTVLPAFKVDAWGQGTTVTVSS
VL: DIVMTQSPLSLPVTPGEPASISCQASQELVHMNRNTYLHWYQQKPGQAPRLLIYKVSNRFPGVPDRFSGSGSGTDFTLKISRVEAEDVGVYYCAQGTSVPFTFGQGTKLEIK
B6: dBBDu183H Y94R / dBBDu072L (antibody, name in Kabat numbering, V domains shown)
VH: QVQLVESGGGLVQPGRSLRLSCAASGFTFSNAWMHWVRQAPGKGLEWVAQIKDKGNAYAAYYAPSVKGRFTISRDDSKNSIYLQMNSLKTEDTAVYYCHRVHYASASTVLPAFGVDAWGQGTTVTVSS
VL: DIVMTQSPLSLPVTPGEPASISCQASQELVHMNRNTYLHWYQQKPGQAPRLLIYKVSNRFPGVPDRFSGSGSGTDFTLKISRVEAEDVGVYYCAQGTSVPFTFGQGTKLEIK
B7: dBBDu183H A100fK / dBBDu072L (antibody, name in Kabat numbering, V domains shown)
VH: QVQLVESGGGLVQPGRSLRLSCAASGFTFSNAWMHWVRQAPGKGLEWVAQIKDKGNAYAAYYAPSVKGRFTISRDDSKNSIYLQMNSLKTEDTAVYYCHYVHYASASTVLPKFGVDAWGQGTTVTVSS
VL: DIVMTQSPLSLPVTPGEPASISCQASQELVHMNRNTYLHWYQQKPGQAPRLLIYKVSNRFPGVPDRFSGSGSGTDFTLKISRVEAEDVGVYYCAQGTSVPFTFGQGTKLEIK
B8: dBBDu183H A98K / dBBDu072L (antibody, name in Kabat numbering, V domains shown)
VH: QVQLVESGGGLVQPGRSLRLSCAASGFTFSNAWMHWVRQAPGKGLEWVAQIKDKGNAYAAYYAPSVKGRFTISRDDSKNSIYLQMNSLKTEDTAVYYCHYVHYKSASTVLPAFGVDAWGQGTTVTVSS
VL: DIVMTQSPLSLPVTPGEPASISCQASQELVHMNRNTYLHWYQQKPGQAPRLLIYKVSNRFPGVPDRFSGSGSGTDFTLKISRVEAEDVGVYYCAQGTSVPFTFGQGTKLEIK
B9: dBBDu183H D101K / dBBDu072L (antibody, name in Kabat numbering, V domains shown)
VH: QVQLVESGGGLVQPGRSLRLSCAASGFTFSNAWMHWVRQAPGKGLEWVAQIKDKGNAYAAYYAPSVKGRFTISRDDSKNSIYLQMNSLKTEDTAVYYCHYVHYASASTVLPAFGVKAWGQGTTVTVSS
VL: DIVMTQSPLSLPVTPGEPASISCQASQELVHMNRNTYLHWYQQKPGQAPRLLIYKVSNRFPGVPDRFSGSGSGTDFTLKISRVEAEDVGVYYCAQGTSVPFTFGQGTKLEIK
B10: dBBDu183H A102K / dBBDu072L (antibody, name in Kabat numbering, V domains shown)
VH: QVQLVESGGGLVQPGRSLRLSCAASGFTFSNAWMHWVRQAPGKGLEWVAQIKDKGNAYAAYYAPSVKGRFTISRDDSKNSIYLQMNSLKTEDTAVYYCHYVHYASASTVLPAFGVDKWGQGTTVTVSS
VL: DIVMTQSPLSLPVTPGEPASISCQASQELVHMNRNTYLHWYQQKPGQAPRLLIYKVSNRFPGVPDRFSGSGSGTDFTLKISRVEAEDVGVYYCAQGTSVPFTFGQGTKLEIK
B11: dBBDu183H F100gK / dBBDu072L (antibody, name in Kabat numbering, V domains shown)
VH: QVQLVESGGGLVQPGRSLRLSCAASGFTFSNAWMHWVRQAPGKGLEWVAQIKDKGNAYAAYYAPSVKGRFTISRDDSKNSIYLQMNSLKTEDTAVYYCHYVHYASASTVLPAKGVDAWGQGTTVTVSS
VL: DIVMTQSPLSLPVTPGEPASISCQASQELVHMNRNTYLHWYQQKPGQAPRLLIYKVSNRFPGVPDRFSGSGSGTDFTLKISRVEAEDVGVYYCAQGTSVPFTFGQGTKLEIK
B12: dBBDu183H H96K / dBBDu072L (antibody, name in Kabat numbering, V domains shown)
VH: QVQLVESGGGLVQPGRSLRLSCAASGFTFSNAWMHWVRQAPGKGLEWVAQIKDKGNAYAAYYAPSVKGRFTISRDDSKNSIYLQMNSLKTEDTAVYYCHYVKYASASTVLPAFGVDAWGQGTTVTVSS
VL: DIVMTQSPLSLPVTPGEPASISCQASQELVHMNRNTYLHWYQQKPGQAPRLLIYKVSNRFPGVPDRFSGSGSGTDFTLKISRVEAEDVGVYYCAQGTSVPFTFGQGTKLEIK
B13: dBBDu183H S100aK / dBBDu072L (antibody, name in Kabat numbering, V domains shown)
VH: QVQLVESGGGLVQPGRSLRLSCAASGFTFSNAWMHWVRQAPGKGLEWVAQIKDKGNAYAAYYAPSVKGRFTISRDDSKNSIYLQMNSLKTEDTAVYYCHYVHYASAKTVLPAFGVDAWGQGTTVTVSS
VL: DIVMTQSPLSLPVTPGEPASISCQASQELVHMNRNTYLHWYQQKPGQAPRLLIYKVSNRFPGVPDRFSGSGSGTDFTLKISRVEAEDVGVYYCAQGTSVPFTFGQGTKLEIK
B14: dBBDu183H V100iK / dBBDu072L (antibody, name in Kabat numbering, V domains shown)
VH: QVQLVESGGGLVQPGRSLRLSCAASGFTFSNAWMHWVRQAPGKGLEWVAQIKDKGNAYAAYYAPSVKGRFTISRDDSKNSIYLQMNSLKTEDTAVYYCHYVHYASASTVLPAFGKDAWGQGTTVTVSS
VL: DIVMTQSPLSLPVTPGEPASISCQASQELVHMNRNTYLHWYQQKPGQAPRLLIYKVSNRFPGVPDRFSGSGSGTDFTLKISRVEAEDVGVYYCAQGTSVPFTFGQGTKLEIK

Chain of Human CD137 ECD (human) (chain, as listed by the source limits assumed): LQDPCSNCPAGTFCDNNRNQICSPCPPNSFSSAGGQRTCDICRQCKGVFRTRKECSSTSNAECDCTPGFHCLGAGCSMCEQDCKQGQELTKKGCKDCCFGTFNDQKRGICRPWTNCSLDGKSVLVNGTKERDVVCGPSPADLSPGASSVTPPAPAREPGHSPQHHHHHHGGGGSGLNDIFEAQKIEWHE

The experiment concerns the target Human CD137 ECD (human). Nature of the experiment: SPR, vs parent H183/L072. (Surface plasmon resonance follows binding to a sensor surface in real time, without labels.)
Turning to B1, the fold change of affinity turned out to be 0 fold.

For B2, the fold change of affinity was determined as 0 fold.

Take B3: the fold change of affinity was 0 fold.

On to B4, for which the fold change of affinity turned out to be 0 fold.

In the case of B5, the fold change of affinity turned out to be 0 fold.

B6: the fold change of affinity is 0 fold.

For B7, the fold change of affinity turned out to be 0 fold.

For the molecule B8, the fold change of affinity is 0 fold.

Take B9: the fold change of affinity is 0 fold.

Take B10: the fold change of affinity was 0 fold.

As for B11, the fold change of affinity is 0 fold.

For the molecule B12, the fold change of affinity is 0 fold.

For B13, the fold change of affinity was determined as 0 fold.

B14: the fold change of affinity turned out to be 0 fold.
